Where a chain is given by its changes, count along the chain named.
T1: Dog ASGR-1 (dog)
T1 construct: Expressed on HEK 293 cells or as membrane prep on beads; cDNA GenBank XM_546579
T1 chain: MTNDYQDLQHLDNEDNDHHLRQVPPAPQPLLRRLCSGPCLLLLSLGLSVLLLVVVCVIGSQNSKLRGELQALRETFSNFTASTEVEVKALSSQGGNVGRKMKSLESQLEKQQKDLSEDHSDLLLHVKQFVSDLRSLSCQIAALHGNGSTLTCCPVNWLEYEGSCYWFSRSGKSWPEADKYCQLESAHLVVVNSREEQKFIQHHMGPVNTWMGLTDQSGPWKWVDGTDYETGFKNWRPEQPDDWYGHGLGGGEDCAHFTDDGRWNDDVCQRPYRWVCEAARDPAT

T2: Rat ASGR-1 (rat, UniProt P02706 1-284)
T2 construct: Expressed on HEK 293 cells or as membrane prep on beads; cDNA GenBank NM_012503
T2 sequence: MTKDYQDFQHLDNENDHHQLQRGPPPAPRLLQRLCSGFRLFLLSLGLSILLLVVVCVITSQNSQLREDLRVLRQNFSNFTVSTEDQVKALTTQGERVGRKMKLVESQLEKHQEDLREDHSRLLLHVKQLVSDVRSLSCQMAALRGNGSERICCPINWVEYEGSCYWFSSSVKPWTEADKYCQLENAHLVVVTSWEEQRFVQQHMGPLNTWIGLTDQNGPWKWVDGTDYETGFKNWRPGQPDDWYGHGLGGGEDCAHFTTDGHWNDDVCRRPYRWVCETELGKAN

T3: Human ASGR-2 (human, UniProt P07307 1-311)
T3 construct: Expressed on HEK 293 cells; cDNA GenBank NM_080913.3; also called huASGR-2; hASGR-2
T3 sequence: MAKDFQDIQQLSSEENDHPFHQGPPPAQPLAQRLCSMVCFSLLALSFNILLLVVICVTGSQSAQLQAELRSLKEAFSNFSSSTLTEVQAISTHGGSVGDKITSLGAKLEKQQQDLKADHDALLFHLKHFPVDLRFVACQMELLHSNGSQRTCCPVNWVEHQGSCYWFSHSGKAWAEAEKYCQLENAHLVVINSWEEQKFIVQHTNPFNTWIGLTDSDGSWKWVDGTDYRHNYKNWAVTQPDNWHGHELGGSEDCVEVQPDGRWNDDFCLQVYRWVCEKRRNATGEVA

B1: 4B1 (antibody, V domains shown)
VH: QVQLQESGPGLVKPSETLSLTCSVSGDSISSYSWSWIRQPAGKGLEWIGRIYTSGSTNYIPSLKSRITMSVDTSKKQFSLKLSSVTAADTAVYYCARDLKSSGCLFFDYWGQGTLVTVSS
VL: DIQMTQSPSSLSASVGDRVTITCRASHTIRTYLNWYQQKPGKAPKLLIYAASSLQSGVPSRINGSGSGTDFTLTITNLQPEDFATYYCQQSYNISFTFGPGTKVDIK
notes: Tested as hybridoma supernatant at normalized concentration
B2: 4H6 (antibody, V domains shown)
VH: QVQLVQSGAEVKKPGASVKVSCKASGYTFTDYYLHWVRQAPGQGLEWMGWIHPNSGGTNYAQKFQGRVTMTRDTSISTAYMGLSSLRSDDTAVYYCARDGTSSFDYWGQGTLVTVSS
VL: DIQMTQSPSSVSASVGDRVTITCRASQGISRWLAWYQQKPGKAPKLLIYGASSLQSGVPSRFSGSGSGTDFTLTISSLQPEDFAIYYCQQANSFPFTFGPGTKVDIK
notes: as for B1
B3: 72G9 (antibody, V domains shown)
VH: EVQLVESGGGLVKPGGSLRLSCAASGFTFSSYSMNWVRQAPGKGLEWVSSISGSSSYIYYADSVKGRFTISRDNAKNSLYLQMNSLRAEDTAVYFCARGGSRGFDPWGQGTLVTVSS
VL: B2 VL with V11L, G28S, S30T, R31S, W32Y, A34N, G50T, I85T, A91S, N92H
notes: as for B1
B4: 184E7 (antibody, V domains shown)
VH: QVQLVQSGAEVKTPGASVKVSCRASGYTFTSYNMHWVRQVPGQGLEWMGWINPNNGGSNYTQKFQGRVTMTRDTSISTAYMELSRLRSDDTAVYYCARKFGDWGQGTLVTVSS
VL: DIQMTQSPSSRSASIGERVTITCRASQGISNYLAWIQQKPGTAPKSLIYAASSLQSGVSSRFSGSGFGTDFTITISSVQREDFATYYCQQYNGYPFTFGHGTKVDIK
notes: as for B1
B5: 198D2 (antibody, V domains shown)
VH: QVQLVESGGGVVQPGRSLRLSCAASGFTFRSYGMHWVRQAPGKGLEWVAVIIYDGSYKYYADSVKGRFTISRDNSKNTLYLQMNSLRAEDTAVYYCARTYSGGMDVWGQGTTVTVSS
VL: QSVLTQPPSVSAAPGQKVTISCSGSSSNIGSNYVSWYQQLPGTAPKVLIYDNNKRPSGIPDRFSGSKSGTSATLGITGLQTGDEADYYCGTWDSRLNVGVFGGGTKLTVL
notes: as for B1
B6: 25A4 (antibody, V domains shown)
VH: QVLLVQSGAEVKRPGASVKVSCKASGYTFTNYDINWVRQATGQGLEWMGWMYPNSGNTGYAQKFQGRVTMTRNTSISTAYMELSSLRSEDTAVYYCASSSGWYYFDYWGQGTLVTVSS
VL: DIVMTQFPDSLAVSLGERATIKCKSSQSVLYSSHNNNYLAWYQQKPGQPPKLLLYWASTRESGVPDRFSGSGSGTEFTLTISSLEAEDVAVYYCQQYYSTPPTFGQGTKVEIK
notes: as for B1
B7: 26C4 (antibody, V domains shown)
VH: B6 VH with L3Q, R13K, T41S, Y52N, K63R, S77N
VL: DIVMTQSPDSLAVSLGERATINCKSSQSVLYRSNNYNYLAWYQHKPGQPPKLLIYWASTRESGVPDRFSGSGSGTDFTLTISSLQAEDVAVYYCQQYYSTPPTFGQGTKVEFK
notes: as for B1
B8: 4A2 (antibody, V domains shown)
VH: B6 VH with L3Q, A9T, R13K, Y52H, M70L
VL: DIVMTQSPDSLAVSLGERATINCKSSQSILHSSNNNNYLAWFQQKPGQPPKLLLYWASTRESGVPDRFSGSGSGTDFTLTISSLQPEDVAVYYCQQYYNTPVTFGPGTKVGIK
notes: as for B1
B9: 29H8 (antibody, V domains shown)
VH: B6 VH with L3Q, K12Q, R13K, Y52N, K63R, T78A
VL: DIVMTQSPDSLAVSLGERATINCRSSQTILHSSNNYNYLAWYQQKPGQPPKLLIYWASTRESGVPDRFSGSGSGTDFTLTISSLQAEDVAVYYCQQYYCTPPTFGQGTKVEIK
notes: as for B1
B10: 12D2 (antibody, V domains shown)
VH: EVQLVESGGGLVKPGGSLRLSCAASGFTFSSYSMNWVRQAPGKGLEWVSSISSSSSYIYYADSVKGRFTISRDNAKNSLYLQMNSLRAEDTAVYYCARLGDYWGQGTLVAVSS
VL: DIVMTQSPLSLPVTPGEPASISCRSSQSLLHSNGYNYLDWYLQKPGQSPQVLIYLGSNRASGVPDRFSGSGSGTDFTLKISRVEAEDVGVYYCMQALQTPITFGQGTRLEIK
notes: as for B1
B11: 194A4 (antibody, V domains shown)
VH: QVQLVQSGTEVKKPGASLKVSCKASGYTFTVYYLNWVRQAPGQGLEWMGWINPNSGGTNYAQKFQGRVTMTRDTSISTAYMELSRLRSDDTAVYYCARGYDILTGWGQGTLVTVSS
VL: EIVLTQSPGTLSLSPGERATLSCRASRGVSNIYLAWYQQKPGQAPRLLIYGASNRATGIPDRFSGSGSGTDFTLTISRLEPEDFAVYYCQHNDYSMFTFGPGTKVDIK
notes: as for B1
B12: 5E5 (antibody, V domains shown)
VH: QVQLVESGGGVVQPGRSLRLSCAASGFTFSNYVMHWVRQAPGKGLEWVAVIWYDGSNKYYADSVKGRFTISRDNSKNTLYLQMNSLRAEDTAVYYCTREVYSSGWYDYGMDVWGQGTTVTVSS
VL: DIQMTQSPSSLSASVGDRVTITCRASQGIRNDLGWYQQKPGKAPKRLIYAASSLQSGVPSRFSGSGSGTEFTLTISSLQPEDFATYYCLQHYSYPRTFGQGTKVEVK
notes: as for B1

Assays:
Dog ASGR-1 = target: T1, Dog ASGR-1; assay: FACS on transfected HEK 293 cells or membrane preps on beads; Y = signal at least 2x irrelevant IgG
Procedure, shortened: (§1)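 Antibodies at normalized concentrations bound 1 h at 4° C to HEK 293 cells expressing each antigen, then Alexa Fluor 647 anti-Fc plus 7-AAD 15 min at 4° C, flow cytometry; empty-vector cells as negative. Alternatively, species ASGR-1 membrane preps on streptavidin beads, antibody 1 h RT, Alexa Fluor 488 anti-Fc; FACS buffer with 1 mM CaCl2 throughout.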

Rat ASGR-1 = target: T2, Rat ASGR-1; assay: as above
Procedure, shortened: as §1

Human ASGR-2 = target: T3, Human ASGR-2; assay: FACS on transfected HEK 293 cells; binding = signal at least 2x irrelevant IgG
Method: Human ASGR-1-specific, ligand competing antibody samples were tested for binding to ASGR-1 from other species (cynomologus monkey ASGR-1, mouse ASGR-1, rat ASGR-1, dog ASGR-1, and pig ASGR-1) as well as to human ASGR-2 in FACS binding assays at normalized antibody concentrations. For cell-based assays, HEK 293 cells expressing the appropriate antigen of interest were mixed with antibody sample or controls, incubated for 1 hour at 4° C., and then washed twice. Cells with bound antibody were then incubated with Alexa Fluor® 647 IgG Fc fragment-specific detection antibody and 7-AAD viability stain for 15 minutes at 4° C., washed once and resuspended in FACS buffer. Samples were analyzed using a BD Accuri™ Flow Cytometer and an Intellicyt HyperCyt Autosampler. As a negative control, supernatants and controls were also screened against HEK 293 cells transfected with empty parental vector. […] For membrane-prep binding assays, ASGR-1 species specific membrane preps were used to coat LumAvidin® microspheres (beads) and tested for binding to selected hybridoma supernatants or controls. Briefly, ASGR-1 species specific membrane preps were incubated with streptavidin-coated LumAvidin® beads for 45 minutes in the dark at room temperature and washed twice. Beads were resuspeneded in FACS buffer containing Stabilguard®. Antigen-bound beads were then incubated with normalized antibody sample for 1 hour in the dark at room temperature, washed twice, incubated with Alexa Fluor® 488 IgG Fc fragment-specific detection antibody for 15 minutes in the dark at room temperature, washed once and finally resuspended in FACS buffer. Samples were analyzed using an Intellicyt iQue™ Screener Platform. FACS buffer supplemented with 1 mM Calcium Chloride was used in all steps. As a negative control, supernatants and controls were also screened against a non-ASGR-1 antigen membrane prep coated on the LumAvidin® beads.

| Binder | binding result (Dog ASGR-1) | binding result (Rat ASGR-1) | binding result (Human ASGR-2) |
| --- | --- | --- | --- |
| B1 | binds | binds | no binding |
| B2 | – | binds | no binding |
| B3 | binds | binds | no binding |
| B4 | binds | binds | no binding |
| B5 | – | binds | no binding |
| B6 | – | binds | no binding |
| B7 | – | binds | no binding |
| B8 | – | binds | no binding |
| B9 | – | binds | no binding |
| B10 | binds | binds | no binding |
| B11 | binds | binds | no binding |
| B12 | – | binds | no binding |
